Test results taken from patent US10337047.

T1: HNE specific peptide GSGSGGGAAPVAAKGGGSGSC (not fully specified)
T1 chain: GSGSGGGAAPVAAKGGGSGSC


Target: T1, HNE specific peptide …

Row | Protein | cleavage on the multiplex sensor, Cathepsin-G alone at 100 ng/mL | cleavage on the multiplex sensor, ratio 100 uL Cathepsin-G to 0 uL HNE | cleavage on the multiplex sensor, HNE alone at 100 ng/mL | cleavage on the multiplex sensor, ratio 0 uL Cathepsin-G to 100 uL HNE | detection limit of cleavage in spiked saliva (colorimetric) | detection limit of proteolytic cleavage of the peptide-magnetic bead layer (colorimetric, visible bare gold surface)
1 | recombinant Cathepsin-G enzyme (protein) IIGGRESRPHSRPYMAYLQIQSPAGQSRCGGFLVREDFVLTAAHCWGSNINVTLGAHNIQRRENTQQHITARRAIRHPQYNQRTIQNDIMLLQLSRRVRRNRNVNPVALPRAQEGLRPGTLCTVAGWGRVSMRRGTDTLREVQLRVQRDRQCLRIFGSYDPRRQICVGDRRERKAAFKGDSGGPLLCNNVAHGIVSYGKSSGVPPEVFTRVSSFLPWIRTTMRS | there was no cleavage seen in the bottom band | there was no reaction seen on the HNE sensor (Bottom band) | – | – | – | –
2 | recombinant Human Neutrophil Elastase (HNE) (protein) IVGGRRARPHAWPFMVSLQLRGGHFCGATLIAPNFVMSAAHCVANVNVRAVRVVLGAHNLSRREPTRQVFAVQRIFENGYDPVNLLNDIVILQLNGSATINANVQVAQLPAQGRRLGNGVQCLAMGWGLLGRNRGIASVLQELNVTVVTSLCRRSNVCTLVRGRQAGVCFGDSGSPLVCNGLIHGIASFVRGGCASGLYPDAFAPVAQFVNWIDSIIQ | – | – | maximum reaction was seen in the bottom band containing HNE | maximum cleavage was seen on the HNE sensor (Bottom band) where a golden color change was visible | The limits of detection for both spiked proteases were comparable to those obtained with the purified proteases | detection limit to be as low as 1 pg/mL for HNE
